Reference: patent publication US10280218B2, “Antibodies binding to BMP4, and uses thereof” (ACADEMISCH MEDISCH CENTRUM, priority 2014, dated 2019)
One block for each molecule: values may come before it.

Assays:
BMP2 [1] = molecular target: T1, BMP2 (Homo sapiens, UniProt P12643); assay: Phosphorylation of SMAD1/5/8 in EPC2-hTERT cells (western blot); type: cell-based; settings: 100 ng/ml BMP2, 4 hours; indicated concentrations
T1 sequence (P12643 283-396): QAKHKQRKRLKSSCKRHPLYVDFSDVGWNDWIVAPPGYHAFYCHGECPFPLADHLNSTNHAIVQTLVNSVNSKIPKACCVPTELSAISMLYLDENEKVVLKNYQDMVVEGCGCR
Description: To detect phosphorylation of SMAD1/5/8 in vitro, EPC2-hTERTs were cultured in 24-well plates and activated with 100 ng/ml of BMP2, BMP4, BMP5, BMP6 or BMP7 (R&D Systems) for 4 hours with or without VHH at the indicated concentrations. After activation, each well was washed twice with ice-cold PBS and lysed with 100 μl M-PER lysis buffer (Sigma-Aldrich, MO, United States) containing Halt Protease and Phosphatase Inhibitor Cocktail (Thermo Scientific, Landsmeer, The Netherlands). Cell debris were pelleted and supernatant was collected. 15 μg of protein was then separated by 10% SDS-PAGE and transferred onto a PVDF membrane (Millipore, Amsterdam, The Netherlands). The blots were then blocked with 5% milk in Tris-buffered saline supplemented with 0.1% Tween-20 (TBST) for 1 hour at room temperature and washed in TBST before overnight incubation at 4° C. with antiphospho-SMAD1/5/8 (Cell Signalling), anti-βactin (Santa Cruz) or anti-GAPDH (Millipore) in 5% Bovine Serum Albumin (BSA). Blots were then washed with TBST and incubated for 1 hour at room temperature in 1:2000 horseradish peroxidase—conjugated secondary antibody in TBST. After a final wash with TBST, blots were incubated for 5 minutes in LumiGlow (BIOKE, Leiden, The Netherlands) and then chemiluminescence was detected using a Fuji LAS4000 illuminator (Fujifilm Medical Systems, Stamford, Conn.). Protein was quantitated with Image). […]

BMP4 [2] = molecular target: T2, BMP4 (Homo sapiens, UniProt P12644); assay: BMP specificity of VHH antibodies (summary of binding and inhibition of BMP function); parameters: purchased R&D systems; key: ●▪: Binding and inhibition of BMP function.; ●□: Binding, but no inhibition.; ○: No binding; settings: summary of SPR and functional experiments
T2 sequence (P12644 293-408): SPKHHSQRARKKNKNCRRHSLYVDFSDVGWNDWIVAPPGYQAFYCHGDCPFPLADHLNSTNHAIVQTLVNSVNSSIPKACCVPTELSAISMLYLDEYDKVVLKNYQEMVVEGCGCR
Excerpt: Thus, we have generated several VH Hs that can be classified into four groups (Table 3): BMP4, BMP2/4, BMP2/4/5 and BMP2/4/5/6-specific.

BMP12 = assay: BMP activity luciferase reporter assay (BRE-luciferase, ID1 promoter) in C2C12 cells; type: cell-based, mouse; settings: 50 ng/ml hBMP12, 16 h; 500 ng/ml
Description: C2C12 cells were plated in 96-well plates when they reached confluency, cells were treated in triplicate with 25 ng/ml of BMP9, 50 ng/ml of BMP10 or 50 ng/ml of BMP12 (all from R&D Systems), for 16 hours. VHHs or Noggin were added at a concentration of 5 ug/ml. C2C12 cells or HEK293 were plated on 12-well plates and starved for 5 hours, before stimulation with 2 ng/ml of TGF-β (R&D Systems) or 100 ng/ml Activin-A (R&D Systems), respectively. VHHs at the indicated concentrations were added at the same time. After 1 hour cells were lysed, and protein isolation and SDS-PAGE separation were performed as described previously. For protein detection the following antibodies were used: antiphospho-SMAD2 at 1:1000 (Cell Signaling).
C2C12 cells were cultured in 96-well plates at 5×10^3 cells/well. After overnight attachment cells were stimulated with 10 ng/ml hBMP4 (Cat No. 314-BP-020; R&D Systems), 50 ng/ml hBMP2 (Cat No. 355-BM-010; R&D Systems), 200 ng/ml hBMP5 (Cat No. 615-BMC-020; R&D Systems), 50 ng/ml hBMP6 (Cat No. 506-BP-020; R&D Systems), 200 ng/ml hBMP7 (Cat No. 354-BP-010; R&D Systems), 25 ng/ml hBMP9 (Cat No. 3209-BP-010; R&D Systems), 25 ng/ml hBMP10 (Cat No. 2926-BP-025; R&D Systems), 50 ng/ml hBMP12 (Cat No. 779-G7-010; R&D Systems) and with or without VHH antibodies: C4C4 and C8C8 at 500 ng/ml; natural antagonist: mNoggin (Cat No. 1967-NG-025; R&D Systems), hNoggin (Cat No. 6057-NG; R&D Systems) and mGremlin (cat#956-GR-050; R&D Systems) at 500 ng/ml; chemical antagonist: 0.5 μM LDN-193189 (Cat No. 11802; Cayman Chemical) and 0.2 μM DMH1 (Cat No. 57146; Selleckchem).

[3] = tested on: patient-derived SMAD4 deficient tumors; settings: FIG. 6 of Lombardo et al.; cited from earlier work
BMP2 [4] = molecular target: T3, BMP2 (human); assay: SPR
T3 chain: T1 sequence (P12643 283-396)

BMP4 [5] = molecular target: T4, BMP4 (human); assay: SPR
T4 chain: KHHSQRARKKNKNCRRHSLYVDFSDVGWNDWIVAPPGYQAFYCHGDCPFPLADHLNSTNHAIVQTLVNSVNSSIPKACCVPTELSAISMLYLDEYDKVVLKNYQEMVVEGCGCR

BMP4: binding and inhibition of BMP function (BMP4 [2]): ●▪
B1: C8E7: E7 linked to C8, hetero-dimer VHH bihead (protein)
chain: EVQLVESGGGLVQAGGSLRLSCAASGRTFRINDMGWYRQAPGKSRDMVARITSGGNTNYADSVKGRFTISRDNAKNTVYLQMNSLKPEDTAVYYCNADGLRFDSTRYRPFDSWGQGTQVTVSSGGGGSGGGGSEVQLVESGGGLVQAGGSLRLSCAASGSIRGFVAMAWYRQAPGKQREWVATVTNGGTLYGDSVKGRFTGSRDNAKNTVYLQMNSLKPEDTAVYYCALRQIGASGYDYWGQGTQVTVSS
inhibition of BMP2 signaling (pSMAD1/5/8), dimer compared to monomer (BMP2 [1]): better at inhibiting both BMP2 and BMP4 as compared to the E7 monomer

Kd (BMP2 [4]): 0.961 nM
Kd (BMP4 [5]): 0.091 nM
B2: hNoggin (protein)
chain: QHYLHIRPAPSDNLPLVDLIEHPDPIFDPKEKDLNETLLRSLLGGHYDPGFMATSPPEDRPGGGGGAAGGAEDLAELDQLLRQRPSGAMPSEIKGLEFSEGLAQGKKQRLSKKLRRKLQMWLWSQTFCPVLYAWNDLGSRFWPRYVKVGSCFSKRSCSVPEGMVCKPSKSVHLTVLRWRCQRRGGQRCGWIPIQYPIISECKCSC
inhibition of BMP12 signals, comparison of inhibitors (BMP12): inhibited
growth of SMAD4 deficient tumors after treatment [3]: generated tumors that grew faster instead of slower
